Measured values taken from patent US11781101B2, “3D-printed models of biological microenvironments” (Regents of the University of Minnesota, priority 2018, dated 2023).

How the values were obtained:
[1] = tested on: GFP-A549 lung cancer cells; assay: 3D-printed directional cell migration chamber, EGF capsules, A549; type: cell-based
From the text: In the example experiment illustrated in FIG. 14, a droplet of fibrin loaded with GFP-A549 lung cancer cells 1400 was printed between linear arrays of chemoattractant capsules 1404 (right) and blank control capsules 1402 (left). The printed droplet defined the primary site of the tumor cells 1400. To generate a long-lasting EGF gradient, capsules 1402 and 1404 were ruptured sequentially at 2-day intervals, starting with the capsule 1408A closest to the cell 1400. Concomitantly, a corresponding control capsule 1408B was also ruptured. The resulting EGF gradient and GFP-A549 response to the gradient is discussed below with respect to FIGS. 15A-17.
FIG. 15B is panoramic fluorescence images illustrating distribution of the GFP-expressing A549 cells of FIG. 15A over time during days 6-10 post-laser rupture of the EGF-containing programmable-release capsules of FIG. 15A. […]
FIG. 16 is a graphical representation of cellular fluorescence intensity of example EGF-expressing A549 cells vs time, with and without EGF release from example programmable-release capsules within a cell migration chamber in accordance with examples of this disclosure. […] The cellular growth rates were first quantitatively compared between samples with and without laser-triggered release of EGF by directly analyzing the fluorescence intensity of GFP-expressing cells. […]

[2] = tested on: GFP-expressing M4A4 cells (a melanoma cell line); assay: 3D-printed directional cell migration chamber, EGF capsules, M4A4; type: cell-based; conditions: EGF capsules sequentially ruptured over 10 days
From the text: (§1) FIG. 21 is a graphical representation of relative selective directed migration of A549 tumor cells, M4A4 tumor cells, and non-tumor HUVEC cells of FIGS. 20A and 20B in response to laser rupture of the EGF-containing programmable release capsules within an example cell migration chamber in accordance with examples of this disclosure. FIG. 21 illustrates distributions of GFP-A549s, GFP-M4A4s, and RFP-HUVECs on day 10, showing the selective directed migration of tumor cells but not HUVECs (mean±s.d., n=4 per group). Scale bar: 500 μm.

[3] = tested on: RFP-expressing HUVEC cells; assay: 3D-printed directional cell migration chamber, EGF capsules, HUVEC; type: cell-based, human; conditions: EGF capsules sequentially ruptured over 10 days
From the text: as §1

[4] = tested on: A549 cells in HUVEC-lined conduit; assay: Vascularized extravasation model, EGF capsules; type: cell-based; conditions: EGF gradients from ruptured capsules, fibroblast-laden gel, by day 4
From the text: FIG. 24A is confocal images of a top view and a side view of a representative microchannel lined by HUVECs within a fibrin gel, such as in the context of the example 3D-printed culture chamber of FIG. 23. FIG. 24B is a fluorescence image of a representative microchannel lined by HUVECs and perfused by fluorescent fluid. In the example of FIG. 24A, a microchannel was created using the pin-molding technique within the fibrin gel of the culture chamber. […]
FIG. 26A is fluorescence images of a conduit of an example vascularized 3D-printed culture chamber illustrating guided extravasation of A549s and subsequent metastases generated over time on days 0 and 2 following the programmable release of EGF from EGF-containing programmable release capsules in accordance with examples of this disclosure. FIG. 26B is fluorescence images of the conduit of FIG. 26A illustrating guided extravasation of A549s and subsequent metastases generated over time on days 4 and 6 following laser-triggered rupture of EGF-containing programmable-release capsules (inset: fluorescence image showing transendothelial formation of metastasis). […]
FIG. 27 is fluorescence images showing the vascularized extravasation model of FIG. 26 after A549s were injected within the conduit without rupture of EGF capsules. […]

B1: EGF: EGF, a chemoattractant of carcinoma cells, encapsulated in programmable-release capsules (protein, UniProt P01133 23-1207, looked up)
Pro-epidermal growth factor: PQHWSCPEGTLAGNGNSTCVGPAPFLIFSHGNSIFRIDTEGTNYEQLVVDAGVSVIMDFHYNEKRIYWVDLERQLLQRVFLNGSRQERVCNIEKNVSGMAINWINEEVIWSNQQEGIITVTDMKGNNSHILLSALKYPANVAVDPVERFIFWSSEVAGSLYRADLDGVGVKALLETSEKITAVSLDVLDKRLFWIQYNREGSNSLICSCDYDGGSVHISKHPTQHNLFAMSLFGDRIFYSTWKMKTIWIANKHTGKDMVRINLHSSFVPLGELKVVHPLAQPKAEDDTWEPEQKLCKLRKGNCSSTVCGQDLQSHLCMCAEGYALSRDRKYCEDVNECAFWNHGCTLGCKNTPGSYYCTCPVGFVLLPDGKRCHQLVSCPRNVSECSHDCVLTSEGPLCFCPEGSVLERDGKTCSGCSSPDNGGCSQLCVPLSPVSWECDCFPGYDLQLDEKSCAASGPQPFLLFANSQDIRHMHFDGTDYGTLLSQQMGMVYALDHDPVENKIYFAHTALKWIERANMDGSQRERLIEEGVDVPEGLAVDWIGRRFYWTDRGKSLIGRSDLNGKRSKIITKENISQPRGIAVHPMAKRLFWTDTGINPRIESSSLQGLGRLVIASSDLIWPSGITIDFLTDKLYWCDAKQSVIEMANLDGSKRRRLTQNDVGHPFAVAVFEDYVWFSDWAMPSVMRVNKRTGKDRVRLQGSMLKPSSLVVVHPLAKPGADPCLYQNGGCEHICKKRLGTAWCSCREGFMKASDGKTCLALDGHQLLAGGEVDLKNQVTPLDILSKTRVSEDNITESQHMLVAEIMVSDQDDCAPVGCSMYARCISEGEDATCQCLKGFAGDGKLCSDIDECEMGVPVCPPASSKCINTEGGYVCRCSEGYQGDGIHCLDIDECQLGEHSCGENASCTNTEGGYTCMCAGRLSEPGLICPDSTPPPHLREDDHHYSVRNSDSECPLSHDGYCLHDGVCMYIEALDKYACNCVVGYIGERCQYRDLKWWELRHAGHGQQQKVIVVAVCVVVLVMLLLLSLWGAHYYRTQKLLSKNPKNPYEESSRDVRSRRPADTEDGMSSCPQPWFVVIKEHQDLKNGGQPVAGEDGQAADGSMQPTSWRQEPQLCGMGTEQGCWIPVSSDKGSCPQVMERSFHMPSYGTQTLEGGVEKPHSLLSANPLWQQRALDPPHQMELTQ
modifications: Pro-epidermal growth factor encapsulated in programmable-release capsules
- maximum cell velocity of leading A549 cells ([1]; guidance of EGF cues from sequentially laser-ruptured capsules in fibrin gel, x-direction displacement, mean±s.d., n=4): 15.48±1.05 μm/h
- growth (proliferation) of tumor cells, cellular fluorescence intensity ([1]; laser-triggered EGF release vs no release, 10 days): accelerated
- directed migration of M4A4 cells [2]: exhibited directional movement
- migratory response of HUVECs to EGF gradients [3]: negative migratory response
- transendothelial behavior (extravasation) of A549s [4]: cells underwent both extravasation and proliferation
